Laboratory results from US6407222B1, “Cloning and expression of dog gonadotropin releasing hormone receptor” (Merck & Co., Inc., priority 1999, dated 2002).

Legend:
[1] = target: dog gonadotropin-releasing hormone (GnRH) receptor (dog) (UniProt Q9MZI6); assay: whole cell radioligand binding assay on transfected CHO-K1 clones (seven of 71 clones)
[2] = target: dog gonadotropin-releasing hormone (GnRH) receptor (dog) (UniProt Q9MZI6); assay: whole cell radioligand binding assay on CHO-K1 clone 1B2-1F9
[3] = target: T1, dog GnRH receptor (Canis lupus familiaris, UniProt Q9MZI6); assay: Phosphoinositide (PI) turnover assay in 1B2-1F9 cells (CHO-K1 stably expressing the dog GnRH receptor); format: cell-based; conditions: 1B2-1F9 CHO-K1 clone expressing dog GnRH receptor; 37° C., 1 hour; FIG. 5; read-out: EC50 of GnRH-stimulated PI turnover
T1 construct: The full-length coding cDNA of the dog GnRH receptor was cloned from dog pituitary mRNA by RT-PCR; expressed in transfected cells
T1 sequence (Q9MZI6 1-327): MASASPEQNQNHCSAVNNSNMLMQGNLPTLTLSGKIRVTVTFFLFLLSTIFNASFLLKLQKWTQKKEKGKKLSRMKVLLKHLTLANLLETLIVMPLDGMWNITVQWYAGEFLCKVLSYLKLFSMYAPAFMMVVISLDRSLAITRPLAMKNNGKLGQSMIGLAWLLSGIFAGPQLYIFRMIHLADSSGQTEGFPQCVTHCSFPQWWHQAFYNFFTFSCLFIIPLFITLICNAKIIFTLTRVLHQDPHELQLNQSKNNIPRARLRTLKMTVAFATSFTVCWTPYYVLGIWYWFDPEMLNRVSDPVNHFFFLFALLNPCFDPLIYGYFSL
Experimental: The coding cDNA of the dog GnRH receptor was subcloned into a polycistronic expression vector pIRES1.neo (Clontech Laboratories, Palo Alto, Calif.) to generate cells stably expressing the receptor. The plasmid DNA of pIRES1.neo-dog-GnRHR was transfected into CHO-K1 cells by lipofectin (GIBCO-BRL, Grand Island, N.Y.) following the manufacturer's instruction. Transfection was carried out overnight and the cells were split 48 hours later. G418 at 1 mg/ml was added 24 hours after splitting, and its concentration was increased to 2 mg/ml in 2-3 days. After 10 days selection by G418, colonies were picked and transferred to 24-well plates. The clones that expressed the dog GnRH receptor were screened by a whole cell binding assay using a radiolabeled peptide agonist of GnRH, 5-(^125Iodo-Tyr)-Buserelin (Woods Assay, Portland, Oreg.). […] After single cell isolation, the membrane from this clone was prepared, and the membrane binding assay was performed using ^125I-buserelin. […] The GnRH-stimulated PI turnover was also performed.
1B2-1F9 cells are functionally coupled to phospholipase C. […] The eluate was then counted in a scintillation counter.

[4] = target: dog gonadotropin-releasing hormone (GnRH) receptor (dog) (UniProt Q9MZI6); assay: cell-based or functional assay

5-(125Iodo-Tyr)-Buserelin (peptide)
specific binding activity, fold above the non-specific binding [1]: 5 fold
specific binding activity, fold above the background [2]: > 10 fold

CC(C)C[C@H](NC(=O)CNC(=O)[C@H](Cc1ccc(O)cc1)NC(=O)[C@H](CO)NC(=O)[C@H](Cc1c[nH]c2ccccc12)NC(=O)[C@H](Cc1cnc[nH]1)NC(=O)[C@@H]1CCC(=O)N1)C(=O)N[C@@H](CCCNC(=N)N)C(=O)N1CCC[C@H]1C(=O)NCC(N)=O [GnRH, Gonadotropin-releasing hormone]
EC50 [3]: 0.3 to 0.4 nM

Gonadotropin-releasing hormone (GnRH) (from UniProt P01148 24-92) (ligand)
EC50 of GnRH-stimulated PI turnover [4]: 0.3 to 0.4 nM
